Source: the supplement of paper PMC9732359
± gives the uncertainty stated by the source.

Assay: protein stability index of a GFP-peptide fusion (yeast GPS) (PSI 1-4); higher = more stable; sorted into four equal gates, so the index is relative within each strain
Conditions: doa10∆
In short: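 Peptides tiling yeast proteins in 17-residue segments were fused downstream of GFP, with Cherry expressed from the same plasmid. As a pooled library in yeast, mid-log cultures grown in leucine-free medium were sorted into four equal gates by GFP/Cherry fluorescence ratio. Gate plasmids were PCR-amplified and Illumina-sequenced, and barcodes linked reads to strains. Each peptide received a protein stability index equal to the sum of each gate's read frequency times its gate number.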

Sequence	protein stability index
ATRHVLMRQGVLGIKVK [RPS3]	2.07 ± 0.096
ATTGGGLFGNKPNNTAN [YGL172W/NUP49]	3.62 ± 0.25

Same assay, conditions: pdr5∆

Sequence	protein stability index
AGKWSSKYLIKQIDIPN [ECM29]	1.86 ± 0.088
AGTEANAVSFDTTFSDF [SRB4]	3.06 ± 0.045
AGTQSSKFSKQQAKGAF [RPL24A]	3.27 ± 0.062
AGTTDNSFIKANLPWLG [RPN2]	1.72 ± 0.064
AGYTTHLMKRIQKGPVR [RPS17A]	2.97 ± 0.15
AHFLSLSFTPTTVIGIR [RPN2]	1.56 ± 0.041
AHVFVGTCNGDITTSIM [RPN1]	2.78 ± 0.044
AIACYSGYNQEDSMIMN [RPB2]	1.75 ± 0.072
AIANTLLYLRLKNIYVS [PRP8]	1.53 ± 0.05
AICRYANVIKALAFCEI [RRP4]	2.04 ± 0.099
AIIGLKSGTSHDAIFSI [SNF12]	2.65 ± 0.082
AINIMNRSNDALIKFME [FAS2]	3.45 ± 0.15
AIPLQQVLSQSADPSLL [SWI1]	2.5 ± 0.13
AIPSRMTVAHLIECLLS [RPB2]	1.85 ± 0.094
AIRRDARYNWICDPVHK [RPL15A]	3.37 ± 0.12
AIRRDARYNWICNPVHK [RPL15B]	3.38 ± 0.13
AISGKKTTYYYYNEEGI [RPC82]	2.97 ± 0.14
AISTDKINPFGFEQVKI [RRI2]	2.94 ± 0.05
AITISNSIDINYKGLPK [SMC1]	2.83 ± 0.054
AKGCEVVVSGKLRAARA [RPS3]	3.24 ± 0.22
AKGLVAYHQKYVDEQSK [RPS16A]	2.12 ± 0.056
AKHAVSEGTRAVTKYSS [HTB1]	3.21 ± 0.11
AKIYPGRGTLFVRGDSK [RPL24A]	1.77 ± 0.12
AKKTSTSTDGKKRSKAR [HTB1]	3.12 ± 0.17
AKNEDDPAHSLNYTVIN [AAR2]	3.05 ± 0.18

Sequence	protein stability index
AKQALDLYHFALNYENE [SNF2]	2.83 ± 0.084
AKSISTSAKEPSENDVF [RPO31]	3.06 ± 0.069
AKSMAFLKEVLSDLSSP [YML103C/NUP188]	3.1 ± 0.079
AKSTVETFISSMTATAD [RIP1]	2.13 ± 0.077
AKVNRPAKIVNFEKPKN [RPN5]	3.12 ± 0.069
AKWAPTLRTISFKGSPN [SNF2]	3.11 ± 0.27
ALALYVDAYRRLENKLS [SRP68]	1.42 ± 0.11
ALASIQTFNFDSFENYF [RPN12]	2.77 ± 0.069
ALDTVTNVLNFIKLQKI [FAS1]	2.04 ± 0.067
ALEEAKLSDNISICMIL [YDL116W/NUP84]	3.02 ± 0.073
ALEFVSLLLSSVKESTG [SRB4]	1.61 ± 0.043
ALEYIGAKVKTMRRQKL [RET1]	2.48 ± 0.097
ALIDAGISMFDYISGIS [SKI6]	1.5 ± 0.046
ALIDTEFANFELKDICS [YML103C/NUP188]	2.49 ± 0.06
ALIENWAADSVSSRVRG [FAS1]	3.1 ± 0.14
ALPNIENDIIKLSDSKT [BRR2]	3.16 ± 0.055
ALQNLSQLPITPMTRIS [YGL172W/NUP49]	1.95 ± 0.12
ALRGMFKDRFKDEPVQN [FAS2]	3.43 ± 0.085
ALSLHREILCYSKDAKE [FAS2]	1.76 ± 0.027
ALSQSSLLKTKLKQQSS [RRI1]	2.51 ± 0.035
ALTKFEASQVTEKQRKK [RPL35A]	2.57 ± 0.1
ALTRGEALLVVLVSSVT [RPS12]	3.63 ± 0.26
AMFFGNYGSSLQWHAMI [AAR2]	1.8 ± 0.085
AMICEAKGLIENIFEGE [YJR042W/NUP85]	2.93 ± 0.086
AMLINLILRDFLNNGEV [RPN3]	2.56 ± 0.076

Sequence	protein stability index
AMSLYHSPFPFNRTKGK [PRP8]	2.08 ± 0.047
ANATAAESDVAKQLAAL [RPL16A]	2.84 ± 0.061
ANGIINVKEITEKLKIS [SMC3]	2.64 ± 0.099
ANLEDIIFEIEKPLVVP [RRP6]	2.79 ± 0.094
ANLPANSSTSPAPSIPS [YLR335W/NUP2]	3.1 ± 0.037
ANLPWLGKAQNWAKFTA [RPN2]	3.39 ± 0.091
ANMATVPSTTNVNMTVN [MED6]	3.08 ± 0.084
ANNIVNIVSDAGANDTS [GRR1]	3.14 ± 0.074
ANRSRFNNEAPPQTRKF [SMB1]	3.03 ± 0.049
APGASVPATAAPGTEAG [SWI1]	3.05 ± 0.075
APGTEAGIVPVSANTPK [SWI1]	2.94 ± 0.065
APIPKQLLQRIPNIPPN [GAL11]	2.63 ± 0.066
APKWYPSEDVAAPKKTR [RPL6B]	2.09 ± 0.065
APLAKVVFRDPYKYRLR [RPL2A]	3.16 ± 0.1
APPLENENSNCLLSIPK [YML103C/NUP188]	1.92 ± 0.057
APSVPEFIYLTKVLQFA [SNF2]	2.5 ± 0.087
AQAQAQAQAQVYAQQST [PGD1]	3.05 ± 0.052
AQFAGRASIEYYVGQVM [DIS3]	2.84 ± 0.2
AQFLRSVVHPGEMVGVL [RPO21]	1.93 ± 0.08
AQGDPNLEPLIAKLVAV [NUT1]	1.87 ± 0.13
AQGLLHLGKGTMTMDVF [RPN1]	2.61 ± 0.066
AQKNTQSYGGRPYGVGL [PRE5]	3.43 ± 0.075
AQKRVVSYMMPSLYRLL [SRB8]	1.19 ± 0.067
AQLDGRIGVLQARMMQQ [NSL1]	2.46 ± 0.043
AQPSVQSSFAGTWSAKE [FAS2]	3.13 ± 0.14

Sequence	protein stability index
AQYEVLANYLTSALSEL [QCR2]	2.18 ± 0.04
ARERKTATYNDNMSEEQ [SNF2]	2.91 ± 0.11
ARIFEFPKTTVAALRFT [RPL18A]	1.67 ± 0.076
ARIKDAFITQLESSITD [YJL039C/NUP192]	2.25 ± 0.1
ARSGLRIGRIEDVTPVP [RPS14A]	2.91 ± 0.12
ARTATVSKKWAAAAVCE [RPL14A]	3.21 ± 0.084
ARVILYLKNVLFAFNGV [SIN4]	1.57 ± 0.06
ARYNWICNPVHKHREAR [RPL15B]	2.68 ± 0.088
ASDGGLYVPHSENRFPG [RPL5]	2.61 ± 0.079
ASINTSATVKTSDLLGS [ECM29]	2.96 ± 0.21
ASMLGLFVFTEGWPKFQ [QCR10]	1.96 ± 0.099
ASSLRFGNSLSNTVNAN [YDL088C/ASM4]	2.78 ± 0.075
ASSSPSSTDFSTCIVSL [ECM29]	2.26 ± 0.07
ASTINGASIIQVIFEIF [YML103C/NUP188]	1.9 ± 0.054
ASYSKYLIDHIKVDGAV [RPL22B]	2.65 ± 0.11
ASYVNIPVIALTDLDSP [RPS0A]	1.81 ± 0.064
ATANATANATANVNASA [DSN1]	3 ± 0.037
ATDEESVRLQRFYQLGV [CSN12]	3.13 ± 0.15
ATESIKNRRRIHGELKT [SMC1]	3.09 ± 0.12
ATLKEIKSIIEQRKQKL [SMC3]	3.16 ± 0.08
ATNRPDTLDPALLRPGR [RPT4]	3.18 ± 0.14
ATPPLKRFKDMEYLSGG [SMC1]	2.89 ± 0.09
